Usually Kd stands for a measure of binding affinity in units of concentration.

One assay has as its target T1, Cynomolgus monkey CDCP1 (Macaca fascicularis, UniProt A0A2K5VLA8).
T1 construct: recombinant ectodomain from CHO cells; construct not given; also called cyCDCP1; BBP468
As to the kind of experiment: Octet BLI, Ab on Protein A sensor, recombinant CDCP1 analyte. A general note: BLI is a label-free optical method that tracks binding on a fibre tip over time.

Assay [1] has as its target T2, recombinant human CDCP1 ECD (AA30-667) with C-terminal His tag (human, UniProt Q9H5V8 30-667).
T2 construct: range 30-667; also called FL-ECD; recombinant FL-ECD
Described as above.
Description: (§1) Affinity: The affinity of antibodies to various recombinant CDCP1 molecules was determined on an Octet Red (Pall, ForteBio) instrument. After loading reagents into a 96-well plate, the Octet Red with Protein A-conjugated biosensors was programmed as follows: 30 seconds for baseline #1; 120 seconds to immobilize the antibody; 30 seconds for baseline #2; 300 seconds for association of antibody to recombinant CDCP1; and 300-600 seconds for dissociation of recombinant CDCP1 from the antibody.

Assay [2] addresses human CDCP1 endogenously expressed on cancer cell lines (human, UniProt Q9H5V8 30-836). Briefly: cell-based or functional assay.

Residue numbers refer to the chain shown, from its start.
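Wherever Kd is given: antibody captured for 120 s on the sensor, followed by 300 s association with CDCP1 and a 300–600 s dissociation phase.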

Description for Cynomolgus monkey CDCP1: as §1

B1: 10E2 (antibody, V domains shown)
VH: QVQLVESGGGVVQPGRSLRLSCAASGFTFSSYGMHWVRQAPGKGLEWVAVVWYDGTIKYYADSVKGRFTISRDNPKNTLYLQMNSLRAEDTAVYYCASQYSSGWHTDFFDVWGQGTMVTVSS
VL: DIQMTQSPSTLSASVGDRVTITCRASQSISTWLAWYQQKPGKAPKFLIYKASSLESGVPSRFSGSGSGTEFTLTISSLQPDDFATYYCQQYSGYSLTFGGGTKVEIK
notes: also called human antibody 10E2
On to B1, for which the values for the Kd (with Cynomolgus monkey CDCP1; in assay [1]) were 1 nM and below 1 nM, respectively.

B2: 05A8 (antibody, V domains shown)
VH: EVQLLESGGGLVQPGGSLRLSCAASGFTFSNYAMSWVRQAPGKGLEWVSAISGRGGSTYYADSVKGRFTISRDNSKNTLYLQMNSLRAEDTAVYYCAKDIVVVPAAKGYVMDAWGQGASVTVSS
VL: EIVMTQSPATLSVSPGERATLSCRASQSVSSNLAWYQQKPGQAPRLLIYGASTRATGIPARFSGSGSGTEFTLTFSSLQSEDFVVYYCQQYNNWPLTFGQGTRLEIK
For B2, the Kd is 18 nM in the assay with Cynomolgus monkey CDCP1 and 7 nM in assay [1].

B3: 41A9 (antibody, human IgG1, V domains shown)
VH: QVQLQQWGAGLLKPSETLSLTCAVYGGSFSDYYWSWIRQPPGKGLEWIGEINHSGSTNYNPSLKSRVTISVDTSKNQFSLKLSSVTAADTAVYYCARDYDVLTGHFYYYYGMDVWGQGTTVTVSS
VL: EIVLTQSPATLSLSPGERATLSCRASQSVRRYLAWYQQKPGQAPRLLIYDASNRATGIPARFSGSGSGTDFTLTISSLEPEDFAVYYCQQRNNWPLTFGGGTKLEIK
notes: also called 41A09; human antibody 41A9
On to B3, for which the Kd stood at 13 nM with Cynomolgus monkey CDCP1 and 6 nM in assay [1].

B4: 01E2 (antibody, V domains shown)
VH: QVQLVESGGGVVQPGRSLRLSCAASGFTFSSYGMHWVRQAPGKGLEWVAVIWYAGSNKYYADSVKGRFTISRDNSKNTLYLQMNSLRAEDTAVYYCAGWDFDYWGQGTLVTVSS
VL: EIVLTQSPATLSLSPGERATLSCRASQTVPNYLAWYQQKPGQAPRLLIYDASNRATDIPARFSGSGSGTDFTLTISSLEPEDFAVYYCQQRANWPPITFGQGTRLEIK
For B4, the Kd with Cynomolgus monkey CDCP1 was above 500 nM; in assay [1], 20 nM.

B5: 38E11-vcMMAE (other)
VH: EVQLLESGGGLVQPGGSLRLSCAASGFTFSNYAMNWVRQAPGKGLEWVSAISGGGGSTYYADSVKGRFTISRDNSKNTLYLQMNSLRAEDTAVYYCAKESITMVRGVMDYYGMDVWGQGTTVTVSS
VL: DIQLTQSPSFLSASVGDRVTITCRASQGISSYLAWYQQKPGKAPKLLIYAASTLQGGVPSRFSGSGSGTEFTLTISSLQPEDFATYYCQHLNRFPRTFGQGTKVEIK
modifications: maleimidocaproyl-valine-citrulline-p-aminobenzoyloxycarbonyl-MMAE on hinge region cysteine thiols, positions not given; DAR 3.9
Consider B5, for which, in assay [2], the “EC50 of killing, Cal-12T NSCLC cells, CellTiter Glo, 96 hrs” value is above 1 µg/mL; the “EC50 of killing, DU145 prostate cancer cells, CellTiter Glo, 96 hrs” value is 1 µg/mL; the “EC50 of killing, H1650 NSCLC cells, CellTiter Glo, 96 hrs” value is above 1 µg/mL; the “EC50 of killing, HCC15 NSCLC cells, CellTiter Glo, 96 hrs” value is above 1 µg/mL. Further, in assay [2], the “EC50 of killing, HCC44 NSCLC cells, CellTiter Glo, 96 hrs” value is above 1 µg/mL; the “EC50 of killing, HCC78 NSCLC cells, CellTiter Glo, 96 hrs” value was above 1 µg/mL; the “EC50 of killing, HCC827 NSCLC cells, CellTiter Glo, 96 hrs” value was above 1 µg/mL; the “EC50 of killing, PC3 prostate cancer cells, CellTiter Glo, 96 hrs” value turned out to be 0.1 µg/mL.

B6: 38E11-PBD (other)
VH: B5 VH
VL: B5 VL
modifications: MA-PEG8-VA-PAB-SG3199 (PBD) on hinge region cysteine thiols, positions not given; DAR 2.3
In the case of B6, in assay [2], the “EC50 of killing, Cal-12T NSCLC cells, CellTiter Glo, 96 hrs” value was above 1 µg/mL; the “EC50 of killing, DU145 prostate cancer cells, CellTiter Glo, 96 hrs” value is 0.1 µg/mL; the “EC50 of killing, H460 NSCLC cells, CellTiter Glo, 96 hrs” value was around 0.1 µg/mL; the “EC50 of killing, H1299 NSCLC cells, CellTiter Glo, 96 hrs” value is above 1 µg/mL. Besides, in assay [2], the “EC50 of killing, H1650 NSCLC cells, CellTiter Glo, 96 hrs” value was around 1 µg/mL; the “EC50 of killing, HCC44 NSCLC cells, CellTiter Glo, 96 hrs” value is around 1 µg/mL; the “EC50 of killing, HCC827 NSCLC cells, CellTiter Glo, 96 hrs” value is above 1 µg/mL; the “EC50 of killing, LNCAP prostate cancer cells, CellTiter Glo, 96 hrs” value was 0.01 µg/mL. For the same molecule, in assay [2], the “EC50 of killing, PC3 prostate cancer cells, CellTiter Glo, 96 hrs” value is 1 µg/mL.

B7: 50D6 (antibody, V domains shown)
VH: EVQVLESGGGLVQPGGSLRLSCAASGFTFSNYAMNWVRQAPGKGLEWVSAISGGGGSTYYADSVKGRATISRDNSENTLYLQMNSLRAEDTAVYYCAKTSSGWYDSYYDYYGLDVWGQGTTVTVSS
VL: B5 VL with S31N, A43V, A51V, G56S, H90Q, R93S, F94Y, R96F, Q100G, V104L
As for B7, the Kd (in the assay with Cynomolgus monkey CDCP1; in assay [1]) was below 1 nM in each case.

B8: 38E11 (antibody, human IgG1, V domains shown)
VH: B5 VH
VL: B5 VL
notes: also called human antibody 38E11
With B8, the Kd with Cynomolgus monkey CDCP1 was found to be 4 nM; in assay [1], 2 nM.

B9: 3B11 (antibody, human IgG1, V domains shown)
VH: QVQLQQWDAGLLKPSETLSLTCAVYGGSFSSYYWSWIRQPPGKGLEWIGEINHSGSTSYNPSLKSRVTISIDTSKNQFSLKLNSMTAADTAVYFCAASPYFDYWGQGTLVTVSS
VL: B5 VL with G56S, H90Q, R93S, F94Y
notes: also called 03B11; 3B111
With B9, the Kd in the assay with Cynomolgus monkey CDCP1 is above 500 nM; in assay [1], 60 nM.

B10: 03B05 (antibody, V domains shown)
VH: QVQLVESGGGVVQPGRSLRLSCAASGFTFSSYGMHWVRQAPGKGLEWVAIIWYDGSNKYYADSVKGRFTISRDNSKNTLYLQMNSLRAEDTAVYYCAKDPSYSSGYYLFDFWGQGTLVTVSS
VL: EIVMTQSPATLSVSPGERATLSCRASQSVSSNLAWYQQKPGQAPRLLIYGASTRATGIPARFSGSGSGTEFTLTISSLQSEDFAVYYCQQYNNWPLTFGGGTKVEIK
notes: also called 3B5
For B10, the Kd in the assay with Cynomolgus monkey CDCP1 is 75 nM; in assay [1] it was 17 nM.

B11: 12C2 (antibody, V domains shown)
VH: QEQLVESGGGVVQPGRSLRLSCVTSGFTFSSYGMHWVRQAPGKGLEWVAVIWYDGTNKYYADTVKGRFTISRDNSKNTLYLQMNSLRAEDTGVYYCAREGCDTISCPYYYYGMDVWGQGTTITVSS
VL: DILMTQSPSSLSASVGDRVTITCRASQGINYYLAWYQQKPGKVPKLLIYTASTLQSGVPSRFSGSGSGTDFTLTISSLQPEDVATYFCQKYNSAPFTFGPGTKLEIK
Turning to B11, the values for the Kd (with Cynomolgus monkey CDCP1; in assay [1]) were 8 nM and 1 nM, respectively.

B12: 03C05 (antibody, V domains shown)
VH: EVQVLESGGGLVQPGGSLRLSCAASGFTFSSYVMSWVRQAPGKGLEWVSGISGSGGSTHYADSVKGRFTISRDNSKNTLYLQMNSLRAEDTALYYCAQQWPQGYWGQGTLVTVSS
VL: B11 VL with L3Q, G28D, N30S, Y31I, Y36F, L46V, T50A, S67T
notes: also called 3C5
B12: the results for the Kd (with Cynomolgus monkey CDCP1; in assay [1]) were 80 nM and 20 nM, respectively.

B13: 14H4 (antibody, V domains shown)
VH: EVQLLESGGDLVQPGGSLRLSCAASGFTFNSYAMSWVRQAPGKGLEWVSVLSGSGGDIHYADSVKGRFTVSRDNSKNMLYLQMNSLRAEDTAVYFCAQQWPQGYWGQGTLVTVSS
VL: B11 VL with L3Q, N30S, Y31I, Y36F, T50A, F87Y, L104V
B13: the Kd with Cynomolgus monkey CDCP1 was 5 nM; in assay [1], below 1 nM.

B14: 27H10 (antibody, human IgG1, V domains shown)
VH: QVQLVQSGAEVKKPGSSVKVSCKASGGTFSSYAMSWVRQAPGQGLEWMGGIIPILGTTNYAQKFQGRVTITADKSTSTAYMELSSLRSEDTAVYYCAREGLYAFDIWGQGTMVTVSS
VL: DIQMTQSPSSLSASVGDRVTITCRASQSISSYLNWYQQKPGKAPKFLIYVASSLQSGVPSRFSGRGSGTDFTLTISSLQPEDFATYYCQQSYSTPWTFGQGTKVEIK
notes: also called human antibody 27H10
Turning to B14, the Kd (in the assay with Cynomolgus monkey CDCP1; in assay [1]) was 45 nM throughout.

B15: 04G06 (antibody, V domains shown)
VH: QVQLVESGGGVVQPGRSLRLSCVVSGFTLSSYGMHWVRQAPGKGLEWVAVIWYDGSDKYYADSVKGRFTISRDNSKNTLYLQMNSLRAEDTAVYYCARDDWGFDYWGQGTLVTVSS
VL: DIQLTQSPSFLSASVGDRVTITCRASQDISNYLAWYQQKPGKAPKLLISASTLQSGVPSRFSGSGSGTEFILTISSLQPEDFATYYCQHLNSYPFGQGTKVEIK
notes: also called 4G6
Regarding B15, the equilibrium dissociation constant (Kd) in the assay with Cynomolgus monkey CDCP1 worked out at 27 nM; in assay [1], 4 nM.

B16: 18C6 (antibody, human IgG1, V domains shown)
VH: QVQLQESGPGQVKPSETLSLTCTVSGGSISSSFWSWIRQPPGKGLEWIGYIYYSESTNYNPSLKRRVTLSVDTSKNQFSLKLTSVTTADTAVYYCARNIGVAGLFDYWGQGTLVTVSS
VL: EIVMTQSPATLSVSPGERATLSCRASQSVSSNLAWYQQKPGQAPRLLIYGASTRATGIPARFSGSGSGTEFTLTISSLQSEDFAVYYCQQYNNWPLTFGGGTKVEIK
notes: also called 18C06; human antibody 18C6
As for B16, the Kd with Cynomolgus monkey CDCP1 stood at 190 nM; in assay [1], 25 nM.

B17: 02F3 (antibody, V domains shown)
VH: QVQLVESGGGVVQPGRSLRLSCAASGFSFSDYGIHWVRQAPGKGLEWVAVIWYDGSNKYYADSVKGRFTISRDNSKNTLYLQVNSLIAEDTAVYYCARDRGYSSGWYVDYYYYGMDVWGQGTTVTVSS
VL: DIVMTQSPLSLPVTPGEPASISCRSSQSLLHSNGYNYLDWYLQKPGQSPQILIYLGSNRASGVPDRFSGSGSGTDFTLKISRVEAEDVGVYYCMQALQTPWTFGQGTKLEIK
In the case of B17, the Kd with Cynomolgus monkey CDCP1 is 83 nM; in assay [1] it was 8 nM.

B18: 42C5 (antibody, V domains shown)
VH: EVQLVESGGGLVQPGGSLRLSCAASGFTFSRYWMNWVRQAPGKGLEWVANIKQDGSEKDYVDSVKGRFTISRDNAKNSLFLQMSSLRAEDTAVYYCARVMYSSGWSFDYWGQGTLVTVSS
VL: DIVMTQSPLSLPVTPGEPASISCRSSRSLLHSSGYNFLDWFLQKPGQSPQLLIFLGSDRASGVPDRFSGSGSGTDFTLKISRVETEDVGVYYCMQALQTPITFGQGTRLEIK
Regarding B18, the figures for the Kd (with Cynomolgus monkey CDCP1; in assay [1]) were 12 nM and 2 nM, respectively.

B19: 47G7 (antibody, human IgG1, V domains shown)
VH: B18 VH with R31S, N35S, F80Y, S84N, A88V, V99E, M100G, Y101G, S106T
VL: B18 VL with R27Q, Y35H, F41Y, F54Y, D58N, T85A, I101P, R108K
notes: also called human antibody 47G7
B19: the Kd stood at 500 nM in the assay with Cynomolgus monkey CDCP1 and 35 nM in assay [1].
